Test results from US20240350597A1 (UNIVERSITY COLLEGE DUBLIN, published 2024).

Assays:
[1] = molecular target: T1, Transmembrane serine protease 2 (TMPRSS2) (UniProt O15393 106-492); assay: cell-based or functional assay
[2] = molecular target: T1, Transmembrane serine protease 2 …; assay: ratio of second order inhibition rate constants, with A1AT as reference

T1 sequence (O15393 106-492 limits assumed): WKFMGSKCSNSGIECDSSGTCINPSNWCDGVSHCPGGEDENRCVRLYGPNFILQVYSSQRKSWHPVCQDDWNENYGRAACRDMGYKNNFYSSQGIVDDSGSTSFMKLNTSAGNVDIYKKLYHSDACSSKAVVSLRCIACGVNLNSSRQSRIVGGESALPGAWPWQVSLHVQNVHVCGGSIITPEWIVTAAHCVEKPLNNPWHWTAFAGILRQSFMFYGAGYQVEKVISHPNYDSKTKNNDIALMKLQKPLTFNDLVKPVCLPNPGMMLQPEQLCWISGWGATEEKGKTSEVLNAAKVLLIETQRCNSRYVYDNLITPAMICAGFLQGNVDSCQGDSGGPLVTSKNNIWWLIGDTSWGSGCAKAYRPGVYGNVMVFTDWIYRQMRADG

B1: SerpinB3-TMP variant (other)
chain: MNSLSEANTKFMFDLFQQFRKSKENNIFYSPISITSALGMVLLGAKDNTAQQIKKVLHFDQVTENTTGKAATYHVDRSGNVHHQFQKLLTEFNKSTDAYELKIANKLFGEKTYLFLQEYLDAIKKFYQTSVESVDFANAPEESRKKINSWVESQTNEKIKNLIPEGNIGSNTTLVLVNAIYFKGQWEKKFNKEDTKEEKFWPNKNTYKSIQMMRQYTSFHFASLEDVQAKVLEIPYKGKDLSMIVLLPNEIDGLQKLEEKLTAEKLMEWTSLQNMRETRVDLHLPRFKVEESYDLKDTLRTMGMVDIFNGDADLSGMTGSRGLVLSGVLHKAFVEVTEEGAEAAAATAVIQFRVSPTSTNEEFHCNHPFLFFIRQNKTNSILFYGRFSSP
notes: also called SerpinB3 anti-TMPRSS2; modified SerpinB3-TMP
[1]
  TMPRSS2 inhibition at a 5:1 serpin:protease ratio (residual activity on Boc-QAR-AMC after 10 min incubation): 92%
[2]
  fold increase in TMPRSS2 specificity (k2) over A1AT: 18 fold
